# Laboratory results as given in US20240024520A1, “AUTONOMOUS KNOB DOMAIN PEPTIDES” (UCB BIOPHARMA SRL, priority 2020, published 2024).
# Where “and” joins values, the source holds several entries; their conditions need not be identical. Equal values may be shown once. Read-outs that look alike come from different tables or passages of the source.
# Key:
# [1] = target: human complement component C5 (human), P01031
# [2] = target: human complement component C5 (human), P01031; remark: listed apart in the source
# [3] = target: human complement component C5 (human), P01031; assay: SPR multi-cycle kinetics
# [4] = target: human complement component C5 (human), P01031; remark: listed apart in the source
# [5] = target: human complement component C5 (human), P01031; remark: listed apart in the source
# Chain of human complement component C5 (human), P01031 (P01031 19-673 limits assumed, chain 1 of 2): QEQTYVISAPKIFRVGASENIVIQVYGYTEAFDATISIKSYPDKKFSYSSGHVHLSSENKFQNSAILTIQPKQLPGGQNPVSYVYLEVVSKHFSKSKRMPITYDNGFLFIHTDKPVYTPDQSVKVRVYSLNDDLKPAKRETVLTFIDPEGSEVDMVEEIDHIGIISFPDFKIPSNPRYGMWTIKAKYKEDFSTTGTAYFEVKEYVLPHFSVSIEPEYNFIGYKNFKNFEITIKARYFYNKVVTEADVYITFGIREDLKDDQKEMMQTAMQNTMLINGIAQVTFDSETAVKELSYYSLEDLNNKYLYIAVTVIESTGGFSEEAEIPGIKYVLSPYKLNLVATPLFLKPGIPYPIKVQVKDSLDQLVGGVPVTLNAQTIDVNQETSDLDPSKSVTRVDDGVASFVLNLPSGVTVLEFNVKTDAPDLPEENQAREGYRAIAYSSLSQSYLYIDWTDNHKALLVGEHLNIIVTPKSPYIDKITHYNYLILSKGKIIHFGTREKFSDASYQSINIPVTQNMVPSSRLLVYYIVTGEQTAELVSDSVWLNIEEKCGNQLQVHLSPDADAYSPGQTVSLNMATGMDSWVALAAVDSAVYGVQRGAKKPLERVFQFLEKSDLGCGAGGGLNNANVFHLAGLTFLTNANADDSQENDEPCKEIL
# Chain of human complement component C5 (human), P01031 (P01031 678-1676 limits assumed, chain 2 of 2): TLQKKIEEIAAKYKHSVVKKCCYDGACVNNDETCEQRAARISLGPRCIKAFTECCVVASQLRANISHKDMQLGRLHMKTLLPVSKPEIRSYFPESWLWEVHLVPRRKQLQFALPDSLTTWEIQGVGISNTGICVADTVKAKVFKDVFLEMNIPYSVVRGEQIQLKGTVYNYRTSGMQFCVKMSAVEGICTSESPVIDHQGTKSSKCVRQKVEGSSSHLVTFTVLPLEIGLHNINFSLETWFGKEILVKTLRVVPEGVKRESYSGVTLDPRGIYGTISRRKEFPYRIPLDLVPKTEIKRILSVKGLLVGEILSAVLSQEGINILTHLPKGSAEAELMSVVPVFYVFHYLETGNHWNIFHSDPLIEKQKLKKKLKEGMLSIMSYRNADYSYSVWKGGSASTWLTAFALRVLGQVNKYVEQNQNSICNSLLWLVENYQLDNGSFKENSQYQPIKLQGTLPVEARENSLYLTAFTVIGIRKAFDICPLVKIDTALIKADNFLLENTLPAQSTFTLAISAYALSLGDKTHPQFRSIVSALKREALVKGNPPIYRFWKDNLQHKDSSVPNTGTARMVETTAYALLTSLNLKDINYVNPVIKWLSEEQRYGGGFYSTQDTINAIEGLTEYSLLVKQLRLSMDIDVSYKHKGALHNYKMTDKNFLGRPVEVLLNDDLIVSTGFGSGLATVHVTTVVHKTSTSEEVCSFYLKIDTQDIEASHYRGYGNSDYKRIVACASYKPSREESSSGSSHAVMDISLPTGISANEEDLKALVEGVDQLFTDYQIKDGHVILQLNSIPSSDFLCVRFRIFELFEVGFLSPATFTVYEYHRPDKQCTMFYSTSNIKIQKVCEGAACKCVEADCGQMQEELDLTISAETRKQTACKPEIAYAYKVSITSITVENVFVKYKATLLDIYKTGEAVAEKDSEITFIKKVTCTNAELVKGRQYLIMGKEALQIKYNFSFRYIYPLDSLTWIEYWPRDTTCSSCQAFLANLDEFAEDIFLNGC
Kd [1],koff [1],kon [1],Kd [2],koff [2],kon [2],fold lower affinity than K149chemSD-A [3],Kd [4],IC50 [5],Ki [5],Binder
5.57 nM,0.00448 s⁻¹,861000 M⁻¹ s⁻¹,–,–,–,–,–,–,–,SCPDGFSYRSWDDFCCPMVGRCLAPRN (modifications not checked) [K149chemFE knob domain peptide]
269 nM,0.00417 s⁻¹,15600 M⁻¹ s⁻¹,246 nM,0.00732 s⁻¹,29700 M⁻¹ s⁻¹,35 fold,–,–,–,"SCPDGFSYRSWDDFCCPMVGRCLAPRN (modifications not checked) [K149B knob domain peptide, chemically synthesised, site-directed disulphides]"
–,–,–,–,–,–,–,6.4 nM,44.9 nM and 31.2 nM,18.9 nM,GSTCPDNYREVDGCDPYDCCLTTWCTNSYCTRYIENLYFQ (modifications not checked) [K136 knob domain peptide cleaved from the 645 Fab]
–,–,–,–,–,–,–,36.5 nM,–,26.7 nM,GSGSCPDGFSYRSWDDFCCPMVGRCLAPRNGSENLYFQ (modifications not checked) [K149 knob domain peptide cleaved from the 645 Fab]
–,–,–,4.46 nM,0.00685 s⁻¹,1.54e+06 M⁻¹ s⁻¹,–,–,–,–,"SCPDGFSYRSWDDFCCPMVGRCLAPRNGS (modifications not checked) [K149 knob domain peptide, chemically synthesised, free energy method (Example 4)]"
